Biological target: Xanthamonas campestris p.v. campestris Class 2 OLD protein, full-length (Xcc^FL, residues 1-595) (Xanthamonas campestris p.v. campestris)
Assay: SEC-MALS

Question: Which stoichiometry N does the source give for “Xanthamonas campestris p.v. campestris Class 2 OLD protein, full-length (Xcc^FL, residues 1-595) (enzyme)” here?
Answer: 4
